Biological target: the molecule itself
Assay: fluorescence correlation spectroscopy (FCS); protein adsorbed on supported lipid bilayers with 96% DOPC and 4% PIP3; two-dimensional diffusion rate measured against surface density; fit to a 2D diffusion model; imaging buffer HBSS with 0.01% w/v beta-casein, with scavenging mixture

B1: BTK PH–TH module (residues 1–171), wild type, with C-terminal mNeonGreen (domain or fragment, human, UniProt Q06187 1-171, looked up)
chain: MAAVILESIFLKRSQQKKKTSPLNFKKRLFLLTVHKLSYYEYDFERGRRGSKKGSIDVEKITCVETVVPEKNPPPERQIPRRGEESSEMEQISIIERFPYPFQVVYDEGPLYVFSPTEELRKRWIHQLKNVIRYNSDLVQKYHPCFWIDGQYLCCSQTAKNAMGCQILENR
notes: Bruton's tyrosine kinase (BTK), human, pleckstrin-homology and tec-homology domains (PH–TH module), residues 1–171; ZnCl2 was added during expression; also called PH–TH^WT; source: E. coli BL21-DE3, purified (HisTrap, SUMO protease cleavage, second HisTrap, Superdex 75); not shown: His6, N-terminal, cleaved; SUMO, N-terminal, cleaved; mNeonGreen, C-terminal, kept
**Q.** Does B1 bind?
**A.** binds

Source: doi:10.1101/2023.10.05.561114, “Conditional Requirement for Dimerization of the Membrane-Binding Module of BTK” (bioRxiv, 2023)
